{"source": "patent US20240270846A1", "about": "(published 2024)", "binders": {"B1": {"name": "GLS3000 S27eP (Kabat) L chain altered form, one-arm antibody with CE115HA000 (antibody, human IgG1, kappa, L234A L235A, N297A, name in Kabat numbering)", "heavy": "QVQLVESGGGVVQPGRSLRLSCAASGFTFSNAWMHWVRQAPGKGLEWVAQIKAKSNNYATYYAESVKGRFTISRDDSKNSLYLQMNSLKTEDTAVYYCRYVHYGAYYGVDAWGQGTTVTVSSASTKGPSVFPLAPSSKSTSGGTAALGCLVKDYFPEPVTVSWNSGALTSGVHTFPAVLQSSGLYSLSSVVTVPSSSLGTQTYICNVNHKPSNTKVDKKVEPKSCDKTHTCPPCPAPEAAGGPSVFLFPPKPKDTLMISRTPEVTCVVVDVSHEDPEVKFNWYVDGVEVHNAKTKPREEQYASTYRVVSVLTVLHQDWLNGKEYKCKVSNKALPAPIEKTISKAKGQPREPQVYTLPPSRCELTKNQVSLSCAVKGFYPSDIAVEWESNGQPENNYKTTPPVLDSDGSFFLVSKLTVDKSRWQQGNVFSCSVMHEALHNHYTQKSLSLSPDYKDDDDK", "chain": "EPKSSDKTHTCPPCPAPELLGGPSVFLFPPKPKDTLMISRTPEVTCVVVDVSHEDPEVKFNWYVDGVEVHNAKTKPREEQYNSTYRVVSVLTVLHQDWLNGKEYKCKVSNKALPAPIEKTISKAKGQPREPQVCTLPPSRDELTKNQVSLWCLVKGFYPSDIAVEWESNGQPENNYKTTPPVLDSDGSFFLYSKLTVDKSRWQQGNVFSCSVMHEALHNRYTQKSLSLSP", "light": "DIVMTQSPLSLPVTPGEPASISCRSSQSLVHPNRNTYLHWYQQKPGQAPRLLIYKVSNRFSGVPDRFSGSGSGTDFTLKISRVEAEDVGVYYCGQGTQVPYTFGQGTKLEIKRTVAAPSVFIFPPSDEQLKSGTASVVCLLNNFYPREAKVQWKVDNALQSGNSQESVTEQDSKDSTYSLSSTLTLSKADYEKHKVYACEVTHQGLSSPVTKSFNRGEC", "notes": "one-arm antibody"}, "B2": {"name": "GLS3000 S27eQ (Kabat) L chain altered form, one-arm antibody with CE115HA000 (antibody, human IgG1, kappa, L234A L235A, N297A, name in Kabat numbering)", "heavy": "B1 heavy", "chain": "B1 chain", "light": "B1 light with P32Q", "notes": "one-arm antibody"}, "B3": {"name": "GLS3000 S27eV (Kabat) L chain altered form, one-arm antibody with CE115HA000 (antibody, human IgG1, kappa, L234A L235A, N297A, name in Kabat numbering)", "heavy": "B1 heavy", "chain": "B1 chain", "light": "B1 light with P32V", "notes": "one-arm antibody"}, "B4": {"name": "GLS3000 V27cE (Kabat) L chain altered form, one-arm antibody with CE115HA000 (antibody, human IgG1, kappa, L234A L235A, N297A, name in Kabat numbering)", "heavy": "B1 heavy", "chain": "B1 chain", "light": "B1 light with V30E, P32S", "notes": "one-arm antibody"}, "B5": {"name": "GLS3000 S56A (Kabat) L chain altered form, one-arm antibody with CE115HA000 (antibody, human IgG1, kappa, L234A L235A, N297A, name in Kabat numbering)", "heavy": "B1 heavy", "chain": "B1 chain", "light": "B1 light with P32S, S61A", "notes": "one-arm antibody"}, "B6": {"name": "GLS3000 S27eY (Kabat) L chain altered form, one-arm antibody with CE115HA000 (antibody, human IgG1, kappa, L234A L235A, N297A, name in Kabat numbering)", "heavy": "B1 heavy", "chain": "B1 chain", "light": "B1 light with P32Y", "notes": "one-arm antibody"}, "B7": {"name": "GLS3000 S27eT (Kabat) L chain altered form, one-arm antibody with CE115HA000 (antibody, human IgG1, kappa, L234A L235A, N297A, name in Kabat numbering)", "heavy": "B1 heavy", "chain": "B1 chain", "light": "B1 light with P32T", "notes": "one-arm antibody"}, "B8": {"name": "GLS3000 S27eW (Kabat) L chain altered form, one-arm antibody with CE115HA000 (antibody, human IgG1, kappa, L234A L235A, N297A, name in Kabat numbering)", "heavy": "B1 heavy", "chain": "B1 chain", "light": "B1 light with P32W", "notes": "one-arm antibody"}, "B9": {"name": "GLS3000 S27eR (Kabat) L chain altered form, one-arm antibody with CE115HA000 (antibody, human IgG1, kappa, L234A L235A, N297A, name in Kabat numbering)", "heavy": "B1 heavy", "chain": "B1 chain", "light": "B1 light with P32R", "notes": "one-arm antibody"}, "B10": {"name": "GLS3000 S52A (Kabat) L chain altered form, one-arm antibody with CE115HA000 (antibody, human IgG1, kappa, L234A L235A, N297A, name in Kabat numbering)", "heavy": "B1 heavy", "chain": "B1 chain", "light": "B1 light with P32S, S57A", "notes": "one-arm antibody"}, "B11": {"name": "GLS3000 V27cD (Kabat) L chain altered form, one-arm antibody with CE115HA000 (antibody, human IgG1, kappa, L234A L235A, N297A, name in Kabat numbering)", "heavy": "B1 heavy", "chain": "B1 chain", "light": "B1 light with V30D, P32S", "notes": "one-arm antibody"}}, "note": "Where a chain is given by its changes, count along the chain named. Names and notes keep the numbering of the source."}
{"target": "T1, CD3 epsilon homodimer protein (UniProt P07766 23-126)", "T1 construct": "construct not described; homodimer as printed; also called CD3 (CD3 epsilon)", "T1 sequence (P07766 23-126)": "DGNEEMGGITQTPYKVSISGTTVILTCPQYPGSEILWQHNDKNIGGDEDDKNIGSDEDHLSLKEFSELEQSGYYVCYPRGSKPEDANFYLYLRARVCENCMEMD", "experiment": "SPR Biacore T200, CD3 epsilon homodimer immobilized; vs unaltered GLS3000;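 note: antibody variants flowed as analyte over CD3 epsilon homodimer amine-coupled to a CM4 chip, at 25 °C in HBS-EP+ running buffer, fitted with Biacore T200 Evaluation Software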"}
{"binder": "B1", "KD ratio to GLS3000 (Affinity up)": 1.06}
{"binder": "B2", "KD ratio to GLS3000 (Affinity up)": 1.08}
{"binder": "B3", "KD ratio to GLS3000 (Affinity up)": 0.95}
{"binder": "B4", "KD ratio to GLS3000 (Affinity up)": 1.1}
{"binder": "B5", "KD ratio to GLS3000 (Affinity up)": 1.18}
{"binder": "B6", "KD ratio to GLS3000 (Affinity up)": 1.1}
{"binder": "B7", "KD ratio to GLS3000 (Affinity up)": 0.98}
{"binder": "B8", "KD ratio to GLS3000 (Affinity up)": 1.32}
{"binder": "B9", "KD ratio to GLS3000 (Affinity up)": 1.35}
{"binder": "B10", "KD ratio to GLS3000 (Affinity up)": 0.9}
{"binder": "B11", "KD ratio to GLS3000 (Affinity up)": 3.21}
